Results taken from article doi:10.1101/2024.10.17.618658.

Experiments:
[1] = biological target: human Juno glycosylated ectodomain (ECD), wild type, with C-terminal SpyTag (human) (UniProt A6ND01); assay: flow cytometry-based bead-binding assay
[2] = biological target: human Juno ectodomain, infertility-associated variant H177Q, with C-terminal SpyTag (human) (UniProt A6ND01); assay: flow cytometry-based bead-binding assay
[3] = biological target: human Juno glycosylated ectodomain (ECD), wild type, with C-terminal SpyTag (human) (UniProt A6ND01); assay: AFM-based single-molecule force spectroscopy
[4] = biological target: human Juno ectodomain, infertility-associated variant H177Q, with C-terminal SpyTag (human) (UniProt A6ND01); assay: AFM-based single-molecule force spectroscopy

Row | Substance | Kd [1] [nM] | Kd [2] [nM] | median bond lifetime under clamped force (before the slip-to-catch transition) [3] [s] | median bond lifetime under clamped force (peak of the catch bond, 40-50 pN) [3] [s] | average median peak bond lifetime under clamped force (40-50 pN) [4] [s]
1 | human Izumo1 ectodomain K150A with C-terminal SpyTag (from UniProt Q8IYV9 22-292) (domain or fragment) | 110 |  |  |  | 
2 | human Izumo1 glycosylated ectodomain (ECD), wild type, with C-terminal SpyTag (from UniProt Q8IYV9 22-292) (domain or fragment) | 45 | 64 | 0.02 | 0.15 | 0.17
